Data from paper PMC6036693, “An iterative computational design approach to increase the thermal endurance of a mesophilic enzyme” (Biotechnology for Biofuels, 2018).

Target: the molecule itself
Experiment: crystal structure; PDC_(2.03) at 6 mg/mL in 20 mM Tris pH 7.5, 100 mM NaCl, 1 mM MgCl2, 0.5 mM DTT, 0.1 mM TPP; crystals grown in 0.1 M MES monohydrate pH 6.0, 2.4 M ammonium sulfate at 20 °C; two molecules in the asymmetric unit

B1: PDC_(2.03), computationally designed thermostable variant of Zymomonas mobilis pyruvate decarboxylase (enzyme)
chain: MDYTVGTYLAERLVQIGLKHHFAVAGDYNLVLLDNLLDNKNMEQVYCCNELNCGFSAEGYARAKGAAAAVVTYSVGALSAFDAIGGAYAENLPVILISGAPNNNDHAAAHVLHHALGKTDYHYQLEMAKNITAAAEAIYTPEEAPAKIDHVIKTALREKKPVYLEIACNIASMPCAAPGPASALFNDEASDEASLNAAVEETLKFIENRDKVAVLVGSKLRAAAAEEAAVKFADALGGAVATMAAAKSFFPEENPHYIGTSWGEVSYPGVEKTMKEADAVIALAPVFNDYSTTGWTDIPDPKKLVLAEPRSVVVNGIRFPSVHLKDYLTRLAEKVSKKTGALDFFKSLNAGELKKADPADPSAPLVNAEIARQIEDLLTPNTTVIAETGDSWFNAQRMKLPNGARVEYEMQWGHIGWSVPAAFGYAVGAPERRNILMVGDGSFQLTAQEVAQMVRLKLPVIIFLINNYGYTIEVMIHDGPYNNIKNWDYAALMEVFNGNGGYDSGAGKGLKAKTAAELEEAIKVALDNTDGPTLIECFIAREDCTEELVKWGERVAAANSRKPVNKLL
notes: the wild-type structures 2WVA and 2WVG served as design template and search model; Crystallised with thiamine pyrophosphate (TPP) and Mg2+; the asymmetric unit of 5TMA holds two molecules; also called variant 2.03; source: E. coli BL21 (DE3), purified (HisPur Cobalt column, Superdex 200 size-exclusion chromatography)
  binding result: binds
